assay: soluble on expression in E. coli; label from the status in PepcDB or PDB records

Soluble on expression in E. coli, not soluble:
MGSDKIHHHHHHMKKLIAGVLVLTILGSCGNKKTNIDPFASITQEVDSIRHKADSIHQEELPEEPKPTEADESFDDFIYNFASDDALQRQRVKFPLPYYKGDEKTNIEERNWKHDDLFTKQHYYTLLFDKEEDMDLVGDTSLTSVQVEWIFVKTRMVKKYYFERIKGAWILEAINLRPVERNENEDFVEFFSHFAADSLFQSRRVQEPLAFVTSDPDDDFSILETSLDLNQWFAFKPALPTDRLSNINYGQRNDDNSPTKILALKGIGNGFSNILYFRRKAGEWQLYKFEDTSI, MGSDKIHHHHHHMKKLLFIVNVDWFFISHRLPIAIDALKKGYTVTIACHFTSHKQELIDMGFNVLEIPFSRSGAGILSELNTLKCIRKVINDVNPSLIHAVTIKPVLYTGLVLKSINRNIPFVAAISGLGYVFTASTLRAKLTRFIASAFYKVALSQKYKMVIFQNTSDENILTKVAKLESSDKFLIKGSGADLSVYNFSPENLDNRTSIVMACRLLREKGVYVYVDAAKLVKEHFPEAEFLLVGTPDLENPNTVKQVEIDQWVSDGTIKYLGHRNDIPSIFANSNIVCLPSFYGEGVPKVLIEAAACGRAIVTTDNPGCKDAIINEVTGIAVPVRDAQSLALAIIKLLDDPALRISMGKKGRSFAEQEFDVRAVVTKHLDIYNELLQK, MGSDKIHHHHHHMKKLLRNLFGSGREEEKRSASDAMSGREQIVTNSEKSNLSTDPDHVNRQADTLKFDAIRAMNMGELVFATEALRKAMELRPEFETRYYLTEALLRRHLTEEALAQMNLLLEEVPMHTATLLNRAKLRLEQNDPSRALEDCGTGIESTSELEEQALFLYYGASAMKDMKNLKDALCLLKQAIEKNDAFIPARLLRARILIDLERYEEATQDLDWVAASDPEEEQVPMLRARLFMLEGKQQNAIQAYEELLSLDPFNEEGHCGIATLMIKEGRSAEAETFLREAIEEMPVQRNLILMLVEILENKGQTQEAAEWRAKLPEAEVESEAVNFNDLYKGNLY, MGSDKIHHHHHHMKKMLKPFYNWLRLKLQFLEEAYYFWLLLCRHNASVNTEASMKKMQYILLREAHVIEKGMSMRNPRKGFGQAKILIMLQNLNRYYDLYSTEDLDFLKFPISTVGSYIQYTNEMGIDITKIEQQYLNLVSRTGFQNLNRHSGIESIAKSDILKECNKTFESLLYSRHSIRYFDNKIPSKEMLEKALKLASRTPSACNRQGWLTHIFIGEKSYSLLQWQGGSNGFEKEIHCSILVTANLNAFLSYEVHQAYVDGGLYAMNLLNALHSLGLGTIPLSCGFGYSKLRMLKKQFYIPENEVPIMIIGVGELLDHFNVAISMRRDVSTTNTYHY, MGSDKIHHHHHHMKKVLTAALLMTAPFMANAGADFVKGDKTFAGEAELGATLTTGNTDTSSYKGRLNFKHELGDWENQYLLEGLYKEDTGAVTAKRYLAGAQGNYKMNDRSYWFANANYEVDPFTGYDYTLSGATGYGHRLLDTSKTFLDVEIGPGYIYQRLDSEQALLEGTDSNDSVVAHGVINFETEITETSKFQQRFVADYGEKLDARSETSLTANIIGALAMKFAIIVRYNSEPLDDKKSTDTETNMTLLYSF, MGSDKIHHHHHHMKLAVYVHVPFCKSKCVYCDFYSVVSEKFDEYFSHLLREIDLYEEVLSESEIKTVYFGGGTPSVVPPSFLKMVLEKLERVSRGFTPDEITIEVNPESVETEKLKIYKQIGINRISLGVQACDDTVLKNAGRLYKEETLKKKAKIVLEQFENVNFDFILGLPGETDITLKKDFRFLEEFPPQHVSLYLLEVDERTRLFDLIQKGLVELPEEDDVERRHDLFVEFLKERGFLRYEISNFAKPGKKSLHNLFYWRNENYLGLGVSAGGHIGRFRYVNASDLKEYEEKITKGELPYEYVHENTEEEEALETVFMGLRIKEGVELNRVKILLPLLEKLQKKYPCYLKVKNGKIFLSEDGMNFSKKILSDLIEWYREGGR, MGSDKIHHHHHHMKLETIDYRAQDSAQRFVESLRETGFGVLSNHPIDKALVDTIYEEWQAFFNSDEKHDYLFKPETHDGFFPADVSETAKGHTVKDIKEYYHVYPWGRIPDSLRENILRYYQEANALAEELLGWVEAHTPAEVAVNYSIALPKMIENSHKTLLRILHYPPMSGDEELGAIRAAAHEDINLLTVLPAANEPGLQVKAKSGEWLDVPSDFGNLIINIGDMLQEASGGYFPSTTHRVVNPEGADKTRSRISLPLFLHPKPEVVLSERYTADSYLMERLRELGVI, MGSDKIHHHHHHMKLGLLTAPFAETPLADVAAWASSAGFEALEIACWPKTSGATRRYAGTSHIDAASTSPAQAKEITASLAEKHLTISGLGYYPNPLHPDAAHREAVIGHLKKVIELAANMGVPVVNTFCGGDASKTVDVNWQDALKVWPEIVAFARGHGIKLAFENCPMIFSYDEWPGGHNIAYSPQVWRRILETWGGDIGMNFDPSHLVWQMIDQARFIREFGPYMLHVHAKDLMIDHDGLYERGILSAGIGWQVPRMPGLGDVDWSGFFSGLYRAGYDGSVIIEHEDRRFEGSDEQVKRGFLLARDVLRPYVK, MGSDKIHHHHHHMKLISVKRIWEQGAHNAFTDLIRFQGALFCVFREGTAHVSPDGALRILRSADLGDTWQSVALIRSDEADLRDGKLIEYQGELLLLGGGTLHDKSGLQSHLWRSLDGLVWSDALKIGDKGYWLWRLTEYQNALYGVGYRAGPDGDTRLYKSDDGVQFETWLMVFNNQGYVNESAIVFDQDNGFCLLRRDPVWGPEYVGLLGCSQAPFIDWQWQELDKRIGGPVMLMYQSRLLAVVRLYDEQVRTALVEIHPDTGVVQELLTLPSKGDTSYAGVVIDGNELWVSYYSSHEIANAQLDAQNVQNESSISTQAKTMIYFAKIQLVGEF, MGSDKIHHHHHHMKLITFVCAAFLCLPSLAQEKFPDGTPVSDWFKDSKIVDINTLGKKYILTDYGVINDSTLLQTEKIQSAIDAAAQNGGGVIVIPKGTYLSGALFFKPKTHLHLEEGAVLKGSDDISNFPIIDTRMEGQSLKYFAALVNADKVDGFTLSGKGTIDGNGLRYWKSFWLRRKVNPQCTNMDELRPRLVHISHSNNVQLSGVRLINSPFWTTHLYKCNHIKLLNLYIFSPEKPVKAPSTDAIDIDVCSNVLVKNCYMSVNDDAIALKGGKGPWADQDPNNGGNFNIIIEDCTYGFCHGALTCGSESIHNRNIILRRIHITNANRLLWLKMRPDTPQQYEYILVEDITGDADHFLYIKPWTQFFDLKDRKDIPVSYSNHVTMRNIDFKCDNFFSVEKSDQYQLTNFTFENLNIKAKNGECDKEMIDNFIWKKVSINNIK, MGSDKIHHHHHHMKLLMIELHQEDCSNIAVSEKIKDAELNLVNVREDGDYTHIDAIFLGDMFKENVISTLRKEKAFNINLKMKSRSEIWVSYDILTTAAWRNFSSLGCTVVPPLRVANGVEKWFVYTPDEISQRDIKRQLEMDNATHISRIRELTLKSFLKVIFNMDFLSDFIDTMEALTDLQVKTIKQAYVNGYYDYPRRCTLGDLAKINGISKNAMAKRLKSVEKKIFECLFGYI, MGSDKIHHHHHHMKLRCAIVDDEPLALSLLESYVNKTPFLELAGKYSSAVQAMKELPGNQIDLLFLDIQMPELNGLEFSKMVAPRTRIVFTTAFGQYAIDGYRVNALDYLLKPISYVDFLQAANKALQWFELVQKPEEVDSIFVKSDYKLVQVELKKILYIEGLKDYIKIYTEDAPKPILSLMSMKSMEELLPPARFMRVHRSFIVQKDKIRIIDRGRIVFDKTYIPVSDSYKQTFQTFLDERS, MGSDKIHHHHHHMKLSINKNTLESAVILCNAYVEKKDSSTITSHLFFHADEDKLLIKASDYEIGINYKIKKIRVESSGFATANAKSIADVIKSLNNEEVVLETIDNFLFVRQKSTKYKLPMFNHEDFPNFPNTEGKNQFDIDSSDLSRSLKKILPSIDTNNPKYSLNGAFLDIKTDKINFVGTDTKRLAIYTLEKANNQEFSFSIPKKAIMEMQKLFYEKIEIFYDQNMLIAKNENFEFFTKLINDKFPDYEKVIPKTFKQELSFSTEDFIDSLKKISVVTEKMRLHFNKDKIIFEGISLDNMEAKTELEIQTGVSEEFNLTIKIKHLLDFLTSIEEEKFTLSVNEPNSAFIVKSQGLSMIIMPMIL, MGSDKIHHHHHHMKLVEITREEIRGDLVGLVPVGSIEQHGPHLPMGTDGIISEYIASKAEEKLKDITLLFPTIYYGVSLEHKGFPFVSLSFQTAISFFTDLLESVFNDLGLRRIIIVNGHGGNSYFLPLVQREFNMKHSDAKVIVFNTFGEEEKILFNVNDLHAGTIETSKIWAIGKSLVRVNKIDEIKNYEVRDGVFIYYSSREANQFGVLNDGKPIRVNEEYGKKILRDLVDKLIWTILNFKV
